The target in the assay is PorK (Porphyromonas gingivalis (endogenous)). Description: cryo-EM structure.

Usually stoichiometry N stands for a count of units in the complex or per binding partner.

Values joined by “and” are separate entries in the source; they are usually repeats but may differ in a detail not shown here. Identical values can stand only once.

Turning to PorK (natural protein), the stoichiometry N was 32 and 33.

The values are drawn from article PMC12365241.
